This series concerns the molecule itself. As to the kind of experiment: cryo-EM structure.

B1: human XPR1 (Xenotropic and Polytropic Retrovirus Receptor 1) (natural protein, UniProt Q9UBH6 1-696, looked up)
chain: MKFAEHLSAHITPEWRKQYIQYEAFKDMLYSAQDQAPSVEVTDEDTVKRYFAKFEEKFFQTCEKELAKINTFYSEKLAEAQRRFATLQNELQSSLDAQKESTGVTTLRQRRKPVFHLSHEERVQHRNIKDLKLAFSEFYLSLILLQNYQNLNFTGFRKILKKHDKILETSRGADWRVAHVEVAPFYTCKKINQLISETEAVVTNELEDGDRQKAMKRLRVPPLGAAQPAPAWTTFRVGLFCGIFIVLNITLVLAAVFKLETDRSIWPLIRIYRGGFLLIEFLFLLGINTYGWRQAGVNHVLIFELNPRSNLSHQHLFEIAGFLGILWCLSLLACFFAPISVIPTYVYPLALYGFMVFFLINPTKTFYYKSRFWLLKLLFRVFTAPFHKVGFADFWLADQLNSLSVILMDLEYMICFYSLELKWDESKGLLPNNSEESGICHKYTYGVRAIVQCIPAWLRFIQCLRRYRDTKRAFPHLVNAGKYSTTFFMVTFAALYSTHKERGHSDTMVFFYLWIVFYIISSCYTLIWDLKMDWGLFDKNAGENTFLREEIVYPQKAYYYCAIIEDVILRFAWTIQISITSTTLLPHSGDIIATVFAPLEVFRRFVWNFFRLENEHLNNCGEFRAVRDISVAPLNADDQTLLEQMMDQDDGVRNRQKNRSWKYNQSISLRRPRLASQSKARDTKVLIEDTDDEANT
In the case of B1, the “stoichiometry N” value was 2.

One may read the stoichiometry N as the number of molecules, sites or subunits per partner or assembly.

The record behind these values is publication doi:10.1101/2024.10.04.616715 (bioRxiv, 2024).
